US20220064322A1 (JACOBIO PHARMACEUTICALS, published 2022)

T1: human CD73 ecto-domain recombinant protein (huCD73) (human, UniProt P21589 27-547)
T1 construct: also called soluble huCD73; soluble recombinant CD73
T1 sequence: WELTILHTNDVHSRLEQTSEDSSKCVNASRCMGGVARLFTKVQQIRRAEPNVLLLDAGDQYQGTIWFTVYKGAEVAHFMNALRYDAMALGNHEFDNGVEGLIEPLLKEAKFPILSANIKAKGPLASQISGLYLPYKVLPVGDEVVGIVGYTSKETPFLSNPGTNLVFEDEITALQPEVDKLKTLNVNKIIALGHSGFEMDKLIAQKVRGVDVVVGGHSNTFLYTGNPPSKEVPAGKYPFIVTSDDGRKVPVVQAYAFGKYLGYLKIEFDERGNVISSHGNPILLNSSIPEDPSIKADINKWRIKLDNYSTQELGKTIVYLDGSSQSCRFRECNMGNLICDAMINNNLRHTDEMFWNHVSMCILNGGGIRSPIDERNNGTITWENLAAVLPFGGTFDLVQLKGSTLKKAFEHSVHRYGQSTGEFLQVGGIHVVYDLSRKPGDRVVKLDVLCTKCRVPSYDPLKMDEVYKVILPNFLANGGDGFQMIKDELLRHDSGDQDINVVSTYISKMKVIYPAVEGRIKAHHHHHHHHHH

T2: cynomolgus CD73 on the cell surface (293T/17-cynoCD73 cells) (cynomolgus (Macaca fascicularis), UniProt P21589 27-547 (human entry))
T2 chain: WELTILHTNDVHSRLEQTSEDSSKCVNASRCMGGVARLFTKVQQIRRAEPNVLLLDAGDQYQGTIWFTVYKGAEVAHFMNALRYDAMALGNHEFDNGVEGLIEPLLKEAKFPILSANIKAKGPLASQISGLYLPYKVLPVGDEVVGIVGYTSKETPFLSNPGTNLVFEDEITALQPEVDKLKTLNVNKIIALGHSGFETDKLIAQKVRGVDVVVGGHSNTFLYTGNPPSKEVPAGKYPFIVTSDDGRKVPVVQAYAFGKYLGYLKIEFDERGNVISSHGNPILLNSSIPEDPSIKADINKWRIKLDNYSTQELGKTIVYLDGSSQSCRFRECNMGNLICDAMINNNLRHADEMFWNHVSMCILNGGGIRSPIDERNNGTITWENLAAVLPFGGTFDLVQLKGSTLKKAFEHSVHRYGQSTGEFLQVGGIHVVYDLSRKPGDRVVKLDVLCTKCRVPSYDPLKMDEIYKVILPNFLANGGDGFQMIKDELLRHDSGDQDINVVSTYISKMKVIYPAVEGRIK

B1: 66F2A8D6 (antibody, mouse IgG1, kappa)
heavy: QVHLQQSGAELAKPGASVNLSCKASGYAFTSYWMHWVKQRPGQGLEWIGYINPSSGLAKYNQKFKDKATLTTDKSSNTAYMQLSSLTYDDSAVYYCGRWLLSAWFAYWGQGTLVTVSAAKTTPPSVYPLAPGSAAQTNSMVTLGCLVKGYFPEPVTVTWNSGSLSSGVHTFPAVLQSDLYTLSSSVTVPSSTWPSETVTCNVAHPASSTKVDKKIVPRDCGCKPCICTVPEVSSVFIFPPKPKDVLTITLTPKVTCVVVDISKDDPEVQFSWFVDDVEVHTAQTQPREEQFNSTFRSVSELPIMHQDWLNGKEFKCRVNSAAFPAPIEKTISKTKGRPKAPQVYTIPPPKEQMAKDKVSLTCMITDFFPEDITVEWQWNGQPAENYKNTQPIMDTDGSYFVYSKLNVQKSNWEAGNTFTCSVLHEGLHNHHTEKSLSHSPGK
light: DIKMTQSPSSIYASLGERVTITCKASQGINTYLSWFQQKPGKSPKTLIYRANILVDGVPSRFSGSGSGQDYSLTINSLEYEDMGIYYCLQYDEFPYTFGGGTKLEIKRADAAPTVSIFPPSSEQLTSGGASVVCFLNNFYPKDINVKWKIDGSERQNGVLNSWTDQDSKDSTYSMSSTLTLTKDEYERHNSYTCEATHKTSTSPIVKSFNRNEC
notes: Hybridoma antibody, mouse IgG1 / mouse kappa full chains
B2: 94A12G11F2 (antibody, mouse IgG1, kappa)
heavy: QVQLQQSGAELAKPGASVKLSCKASGYTFTSYWMHWVKQRPGQGLEWIGYINPSSGYTKSNQKFKDKATLTADKSSSTAYMQLSSLTYEDSAVYYCGRWLLSAWFAYWGQGTLVTVSAAKTTPPSVYPLAPGSAAQTNSMVTLGCLVKGYFPEPVTVTWNSGSLSSGVHTFPAVLQSDLYTLSSSVTVPSSTWPSETVTCNVAHPASSTKVDKKIVPRDCGCKPCICTVPEVSSVFIFPPKPKDVLTITLTPKVTCVVVDISKDDPEVQFSWFVDDVEVHTAQTQPREEQFNSTFRSVSELPIMHQDWLNGKEFKCRVNSAAFPAPIEKTISKTKGRPKAPQVYTIPPPKEQMAKDKVSLTCMITDFFPEDITVEWQWNGQPAENYKNTQPIMDTDGSYFVYSKLNVQKSNWEAGNTFTCSVLHEGLHNHHTEKSLSHSPGK
light: DIRMTQSPSSMYASLGERVTITCKASQDINTYLSWFQQKPGKSPKSLIYRSNILVDGVPSRFSGSGSGQDYSLTISSLEYEDMGIYYCLQYDDFPYTFGGGTKLEIKRADAAPTVSIFPPSSEQLTSGGASVVCFLNNFYPKDINVKWKIDGSERQNGVLNSWTDQDSKDSTYSMSSTLTLTKDEYERHNSYTCEATHKTSTSPIVKSFNRNEC
notes: as for B1
B3: S1B5 (antibody, human IgG1, kappa, V domains shown)
VH: EVQLKESGAELVKPGASVKISCKATGYTFTGYWIEWVKQRPGRGLEWIGEILPGSDITNYNEKFKGKATITADTSSNTAYMQLSSLTTEDSAIYYCARRGYDETGYAMDYWGQGTSVTVSS
VL: DIVMTQSPASLAVSLGQRATISCKASQSVDYDGDSYMNWYQQKPGQPPKLLIHAASNLESGIPARFSGSGSGTDFTLNIHPVEEEDAAVYFCQQSKEVPWTFGEGTKLEIKR
notes: Phage antibody, chimeric human IgG1 / human kappa full chains
B4: 191C3A8B9 (antibody, mouse IgG1, kappa, V domains shown)
VH: QVQLKESGPGLVAPSQSLSITCTVSGFSLTNYGVHWVRQPPGKGLEWLGVIWAGGSTNYNSALMSRLSISKDNSKSQLFLKMNSLQADDTAMYYCARERGSSWGTMDYWGQGTSVTVSS
VL: QIVLTQSPAIMSASPGEKVTMTCSASSRVSYMHWYQQKSGTSPKRWIYDTSQLASGVPARFSGSGSGTSYSLTISSMEAEDAATYYCQQWSSNPYTFGGGTKLEMRR
notes: as for B1

Key:
[1] = molecular target: T1, human CD73 ecto-domain recombinant …; test: indirect ELISA, coated soluble huCD73, curve fit
Experimental: (§1) The indirect ELISA method was applied to evaluate the binding ability of each positive clone to soluble huCD73 protein. Soluble huCD73 was coated, and gradient diluted samples were incubated, then HPR-labeled secondary antibody was added, finally TMB was added to develop the color, and OD450 was read after termination.
(§2) 1 ug/ml of recombinant CD73 protein was coated on ELISA plates (Coning), incubate overnight at 4° C. The next day, wash 5 times in PBS and blocked with 200 ul/well 2% skimmed milk, a certain dose range of CD73 antibodies were incubated for 1 h at room temperature. Wash 5 times with PBST washing buffer (PBS, 0.05% Tween 20), add HRP-conjugated goat anti-mouse IgG (H+L) (Promega) and incubate at room temperature for 1 h to detect bound anti-CD73 antibodies; wash the plate 5 times again and add TMB (Life Technologies) for color development for 5 to 10 min; finally the reaction was stopped by adding 1N HCl, and the OD value was measured at 450 nm. GraphPad Prism software was used to generate data graphs and statistical affinity data.

[2] = molecular target: T1, human CD73 ecto-domain recombinant …; test: indirect ELISA, coated soluble huCD73
Experimental: as §1, §2

[3] = molecular target: T1, human CD73 ecto-domain recombinant …; test: indirect ELISA, coated soluble huCD73, HRP-labelled secondary antibody, OD450
Experimental: as §1, §2

[4] = molecular target: T1, human CD73 ecto-domain recombinant …; test: cell-based or functional assay
[5] = molecular target: T2, cynomolgus CD73 on the cell surface …; test: cell-based or functional assay

| Binder | Bottom [1] | Top [1] | EC50 [2] | EC50 (read off the curve) [3] | Bottom (lower plateau of the fitted curve), blockade of soluble huCD73 enzyme activity (AMP hydrolysis, luciferase/CellTiter-Glo) [4] | IC50, blockade of soluble huCD73 enzyme activity (AMP hydrolysis, luciferase/CellTiter-Glo) [4] | Top (upper plateau of the fitted curve), blockade of soluble huCD73 enzyme activity (AMP hydrolysis, luciferase/CellTiter-Glo) [4] | IC50, blockade of 5'exonuclease activity on 293T/17-Cyno CD73 cells [5] |
| --- | --- | --- | --- | --- | --- | --- | --- | --- |
| B1 | 0.165 OD450 | 3.11 OD450 | 0.153 nM | ~0.2 nM | 6.36 | 1.96 nM | 86.1 | 0.077 nM |
| B2 | 0.0566 OD450 | 2.94 OD450 | 0.242 nM | ~0.2 nM | 6.21 | 1.5 nM | 87.8 | 0.006 nM |
| B3 | 0.007 OD450 | 2.93 OD450 | 0.085 nM | ~0.08 nM | 16.2 | 3.26 nM | 99.5 | 0.085 nM |
| B4 | 0.0498 OD450 | 2.75 OD450 | 0.279 nM | ~0.04 µg/mL | 5.55 | 2.41 nM | 93.7 | 0.001 nM |
